# Results from the DeepSol protein solubility set.
# Assay: soluble on expression in E. coli; label from the status in PepcDB or PDB records
row,Sequence,soluble on expression in E. coli
1,MTIDTTNESDNSPTNSPGLEASARTFSLNASKMVRITDDYADEVFIEQNDVVIEKPRMDPLHVRKLMETWRKAARRARTNYIDPWDEFNIHEYPVQRAKRYRYSAIRKQWTEDIVDVRLHPDSFARGAMRECYRLKKCSKHGTSQDWSSNYVAKRYICQVDRRVLFDDVRLQMDAKLWAEEYNRYNPPKKIDIVQMCVIEMIDVKGSPLYHLEHFIEGKYIKYNSNSGFVSNAARLTPQAFSHFTFERSGHQMMVVDIQGVGDLYTDPQIHTVVGTDYGDGNLGTRGMALFFHSHRCNDICETMDLSNFELSPPEIEATEVAMEVAAKQKKSCIVPPTVFEARRNRISSECVHVEHGISMDQLRKRKTLNQSSTDLSAKSHNEDCVCPECIPVVEQLCEPCSEDEEDEEEDYPRSEKSGNSQKSRRSRMSISTRSSGDESASRPRKCGFVDLNSLRQRHDSFRSSVGTYSMNSSRQTRDTEKDEFWKVLRKQSVPANILSLQLQQMAANLENDEDVPQVTGHQFSVLGQIHIDLSRYHELGRFVEVDSEHKEMLEGSENDARVPIKYDKQSAIFHLDIARKCGILEAVLTSAHIVLGLPHELLKEVTVDDLFPNGFGEQENGIRDLEEFGSDLMEIAAEMGDKGAMLYMAHAYETGQHLGPNRRTDYKKSIDWYQRVVGFQEEEELDSDCGKTTFSSFAPLTRHEILAKMAEMYKEGGYGLNQDFERAYGLFNEAAEAAMEAMNGKLANKYYEKAEMCGE,not soluble
2,MSLNCERVWLNVTPATLRSDLADYGLLEPHALGVHEGRIHALVPMQDLKGPYPAHWQDMKGKLVTPGLIDCHTHLIFAGSRAEEFELRQKGVPYAEIARKGGGIISTVRATRAASEDQLFELALPRVKSLIREGVTTVEIKSGYGLTLEDELKMLRVARRLGEALPIRVKTTLLAAHAVPPEYRDDPDSWVETICQEIIPAAAEAGLADAVDVFCEHIGFSLAQTEQVYLAADQYGLAVKGHMDQLSNLGGSTLAANFGALSVDHLEYLDPEGIQALAHRGVVATLLPTAFYFLKETKLPPVVALRKAGVPMAVSSDINPGTAPIVSLRMAMNMACTLFGLTPVEAMAGVTRHAARALGEQEQLGQLRVGMLADFLVWNCGHPAELSYLIGVDQLVSRVVNGEETLHGEGHHHHHH,soluble
3,AMLAELTHRCPLACPYCSNPLALHGKARELDTQTWARAFDEAAALGVLQLHLSGGEPASRPDLVELTRAAHEAGLYTNLITSGIGLTPARLDALEAVGLDHIQLSLQGTTPDLADRIGGYKGGFARKMAVAAEIKARGIPLTLNAVMHRHNLDDLERTIELAIELGARRLEVACVQFHGWATRNRAALLPSRAQTEAAKRIVAEAEARLRGTLAFDFVPPDYYADYPKACMGGWGSAGLNIAPDGTVLPCHAA,not soluble
4,MSLNIETKKVAVEEISAAIANAQTLVVAEYRGISVSSMTELRANARKEGVYLRVLKNTLARRAVQGTSFAELADQMVGPLVYAASEDAVAAAKVLHQFAKKDDKIVVKAGSYNGEVMNAAQVAELASIPSREELLSKLLFVMQAPVSGFARGLAALAEKKAGEEAA,not soluble
5,MGSDKIHHHHHHEAKGHQTVKIDTVVSADKQTFLQFPGKVKAAQDISLAFRVSGTISKIHVKDGARVQEGQLLAELDPTDYQVQLDATEAEYQQIKAEAERVMALYKDNGTTPNANDKAVYGLKQITAKYKHHKDQLAYTRLYAPFNGYVQKRLFEAHETIGAGMPVIAMISGGTPEVEINLPAAEYIRREQFDNYHCTFDIYPGETYPLKLISVTPKANANQLYTMRLQVVPGTRAIPSPGMNTMVTILCRTEQENTLSVPTGAILQKEGKAYVFVFHPSSNTVHRQEVSILRLLNNGHSLITSRQLQPGEQIVSSGVHHIEDGEIVKPLSPVTNTNIGGLL,not soluble
6,MITLIFPGFNNVHVSGMDIEEKIRKIEEEIQKTPYNKATAHHIGKLKAKISRLKEEALQRKTSSGKGRGFHIKKSGDSTVVLIGFPSVGKSTLLNELTSAESKVGDYQFTTLEIVPGVMEYRGAQIQIFDIPGIITGASRGRGRGREILSVARSADLIVIVLDVFNTDHMDIILRELRDVGIRPNETPPDVIVKRRKLGGVKLSATVELTHLDEKIIRSVLNEYGIHNADVLIRDDITVDQFIDVMEANRAYIPAITVINKIDLVDESYLEGLREKFPEALFISADRDINIDELREEIFNRLGLIRIYLKPQGKKADYDEPLIIREGSTVGDVCQKLHRDFVRKFRHARVWGSSVKFDGQKVGLEHVLNDEDVLRIIIKK,not soluble
7,MGSDKIHHHHHHMIVEMTGIHKSFSGNPVLKDVSFTLEKGEIHALMGENGAGKSTLMKILTGIYERDSGTVKIKGREVHYKHPKEAEADGLAVIHQELNILPELTVAENLFVGKERTYGKTGWIKSKEMNRLAEEKLAELGLKVKGTERAGNLSVGKQQLIEIAKALMTNADIIIMDEPTAALTDREIDTLFATVRELQKKGVTFVYISHRMEEIFSLCQRITVLRDGEYVGTKVIAETSFDEIVKMMVGRALGNRFPEHTLTPGDVKLEIKHLTRAGEFENVSLSVRAGEILGISGLMGAGRSELVETIFGYRKADSGEVWIDGKQAAIKGPDQAIAQGIGFVSEDRKSKGLIVDFSIRDNISLTNLSRISTSSWISSEKERSLYEELAKKLHVKASGPSQQAKSLSGGNQQKIVIAKWLGIEPKILILDEPTRGVDVGAKKEIYTIMNELAKQGVAIIMVSSELPEVIGLSTRVAVMFEGKLMHILERDELSEETIMHYATGGDKHVRQ,not soluble
8,MTLLRVGGVPEPFNEIFMQAQEGALPSTKLQVEFLGVAGGSGAALEMLAKCELDVAVTLTESAVARTKAAASGLAVHSVYVASPLAWGVAVSSKKTDWTDLNSLDAAVLRGESIRAGFSRRGSGSHLLLSVFASDRGWISTGIQNDILKSFECGSFDGLIQAAVAGDIDMFLWETCFTKECAATRQGLIRLVGEYAPSWPAFVLVCRDDAHVRAAVSELKREIEPLQRKFCTGEGLDILQNKYGFSLESAKLWLSRLQFAEPDEALSAEQWRSVERALELTAGSRSSSR,soluble
9,MSAEAADREAVSGSRPCTPPQTSWFEFLLNPSLLEQHLHSPHPDPSPVQLIFQFLEQASKPSVNEQNQVQPPVDNRRNRTLKLMALKVAAHLRWDLNMLEKGLTIPVLNMLLNELLCVSHVPPGVKHVDLDLSSLPPTTAMAVVFYNRWAIRTIVLSSFPEKQTKPGPHQLNMMNMLQQEKEHTENILSVLREQATDSIMVLEGALSIKKDFYIHL,not soluble
10,MGSDKIHHHHHHMRFEEAGCHGEFIQADLTKLPFSEPKFDVIFSEGVLHHTDSTEKAIKYLTTLLIPGGHFLFYVYKTKAPIREFTDDYVRNQLINMDDSQAWNELRSLTLLGKILGDLNIEVEIPEPILLLGIPAGRINIQRLFYWYICKAFYNPEWTIDEMNHVNFDWYRPLNCHRHTPEEIMTWCNQAGLKIERMNVQEAGITVVAKKE,not soluble
11,DIESGLYALIGLFATSKTIDLVQVGLNQSKTVFIISENQEAIRQAILFKIDRGITRLSAKGGYTEDDKQILLCVIAQSEFSRLKEVIKEIDPEAFVVVMSASEVMGEGFTS,not soluble
12,MSPTSRPATGASLSAARRSREVADTVGGPVVDVLVVGLGATGAGAALDAAARGLGVVAVDAHDLAFGTSRWSSKLIHGGLRYLASGQLDVAHESAVERGVLMERTAPHLVRAQPFVLPLTPLVSRGQGALAWAGFRAGDTLRLAARTARATLPAPRRLSAVETRHLAPALRSDRLRGGLLSWDGRLADDARLVTALARTAAARGARILTRVRALELTGSGARVRDETTGEEGVIRARAVVNASGVWAGDLVDGIRIRPSRGTHLVLRSDRLGPLPAGLHVPIPGETNRFVLVLPQDDGRVYVGLTDEPVDGDVPDVPEVPETDVGFLLDVLGSVLDVPVHREDVVGAFAGLRPLLDTAPSDRPGAAPRTADVSRRHAVLTSSEGVITVVGGKLTTYRRMAEDAVDAAVAARGLAAGPSPTAALPLVGAAAPHTLAGVRAPRRLVRRYGTEAPAVQALASREPCLAERVLPGHPVTGAELVWALRHEGALDEADLLDRRTRVGLVPEDRAAALGAVRDLVGEVTADPRLEHHHHHH,not soluble
13,MTETSTVSIASSAIVCVEADIKGEVIIKEGCVVHPFVVFDATKGPIYVGENNIFEEYAVIRNNSDGQPMIIGDWNIFQVHSKSSAKYVGSRNVIGVHAVLEDGCSVSDDCSVGAKCTVFSHQNLEPSVSVYAATNLSRTTKTPNMTSPHQIEFLRKILPSYHHLYGKKKAVATASASAAQ,not soluble
14,MEIALERIYGHRLALPQVGAALLFAQEAPPALLLVPEARLRRYRDLSAFGAKVYVNPGLEALEEKALFVLSYEEALSPFPEDPEAWRLLLEVGRAYPREALLSRLLKLGYARDEDYRVLGEVVELGEVRLEFFGDELERLVVRGEERRRHVLLPKPGKAEGFTSKKVLHFPGPVYLDTPALAPKALWPLLAGRPWVALGGGVELPPLELGARPLPPYRGSLKALEKDLARWLAEGKRVHLFVGHARTLEYLKRRLQAFSPLILDRFPGPKGRLALLPGDFEGGAEWGEWVLLTEALVFATGGVRARVRVGEGLSDPGALSPGDYLIHPEHGVGQYLGLETREVLGVKRDYLVLRYKGEGKLYLPVEQLPLLKRHPGTTDDPPELSSLGKNEWQRAKERARKDVEELAGRLLVLQAKRKATPGRAFPPLPEWDPLVEKGFPYELTPDQKRALEEVLRDLESPHPMDRLVSGDVGFGKTEVALRAAHRVVGHGAQVAFLGPTTLLAEQHGKTFRERFQGLPVRVAVLSRFTPPKEEEAILKGLAEGTVDIVIGTHRLLQEDVRFRDLGLLIVDEEHRFGVAQKERIRELKAEVDTLYLSATPIPRTLYSALVGLKDLSSIQTPPPGRKPIKTFLAPFDPLLVREAILFELERGGKVFYVHDRVASIEARRRFLENLVPEARIGVVHGQMPESLIEETMLLFAEGAYDVLLATTIIEAGLDVPEANTILIERADRLGLATLYQLRGRVGRREEEAYAYLFHPPRLTEAAEKRLAAIADLSDLGSGHLLAERDMEIRGVGNLLGPEQHGHIRALSLEVYTELLEEAIRKLKGEAKEERRHVTLDLALSARLPAEYVGSLEARSRYYSRFAEAKSLAELSRLVRELKERYGPLPEEAENFVALARLRLVAERKGVVSITEGLTHLEVVFPRYPLDYDARGLKGLPYRVELTQYPPGFRLEKKGLRPRDYPEALMEVLYLFADL,soluble
15,MKVIMTTKVDKASMNIMNKLIENFGFKETEYVFDGNPVYKRGDVLILTTNDEMIYYDYLDREIENQLGFKPEIIAFASRHSSKQKLPALTTHVTGNWGKAMYGGKDESFAVAIPSAMKLSLLKMSELNDLGWTVCYEATHHGPTELEVPSFFIEIGSSEEEWINDRAGEIIAETIIYVLDNYEKGRSKFKVALGIGGGHYAPKQTKRALEGDLAFGHILPKYAQPVSRDVMIKALNRFGEKVEAIYVDWKGSRGETRQLAKSLAQELGLEFIKD,soluble
16,MKRLIGILLCNLFILTACSASVDKTSNSTKTTDYKIENGETLKVPEKPKRVAVLTGFYVGDFIKLGIKPIAVSDITKDSSILKPYLKGVDYIGENDVERVAKAKPDLIVVDAMDKNIKKYQKIAPTIPYTYNKYNHKEILKEIGKLTNNEDKAKKWIEEWDDKTRKDKKEIQSKIGQATASVFEPDEKQIYIYNSTWGRGLDIVHDAFGMPMTKQYKDKLQEDKKGYASISKENISKYAGDYIFLSKPSYGKFDFEKTHTWQNIEAVKKGHVISYKAEDYWFTDPITLEHLRSKLKKEILNKK,not soluble
17,MLAMKLGIVGLGGWVTGAHIPALTDLGIKVDYCADIDEKRVKDLSQKTGCKGYLDYKEMLRNENPDLVLVAVPHSLHAIIALDAINNDANVYVEKPMATSFQEALTLVEASRKRNKILVVGHENRFNPAMLIAKKLIRGGEVGKIYHMRGFYIRQRGIPTSPTFIKKDLAKGGAVFDIGTHIIDLLLFLSDFPTPKSVTGKTYNAFSEDKTKFSAYPSPNLPNFKVEVEDFGSAFLKLGDEISAYVEVSWASYIKENKMEVVILGDNGGIHIDNGVLNFMRNIEDELFISSPLTQQKGSVYREVWRTVMESISKGFPEYPLCSAEQGAIGVAILESIYKSALEGREVKIDIPQWFLKQFQPRALEHHHHHH,not soluble
